We go through two molecules from US20150361164A1 (EVEC, published 2015).

For test [1], the target named is T1, human-derived recombinant HMGB1 (expressed in Sf9 cells) (human, UniProt P09429 1-215, limits assumed).
T1 construct: Purified from baculovirus-infected Sf9 cells on Ni-NTA; also called Sf6-expressed recombinant human HMGB1; Sf6-derived recombinant HMGB1
T1 sequence (looked up): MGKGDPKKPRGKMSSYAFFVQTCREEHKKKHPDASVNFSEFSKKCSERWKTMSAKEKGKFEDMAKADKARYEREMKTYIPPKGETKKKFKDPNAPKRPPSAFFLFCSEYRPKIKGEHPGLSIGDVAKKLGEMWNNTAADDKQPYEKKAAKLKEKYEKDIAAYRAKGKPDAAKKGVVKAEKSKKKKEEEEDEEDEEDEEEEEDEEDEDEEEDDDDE
The experiment in a line: competition ELISA, inhibition of HMGB1 binding to immobilized RAGE-Fc. The protocol:
RAGE-Fc (R&D, 250 ng/well) was immobilized overnight at 4° C. on immunoplates (Nunc, Maxisorp) and 5% BSA (bovine serum albumin) was added thereto to block the plates for 2 hours, followed by addition of human monoclonal antibody (Control Ig) to block the plates for 2 hours. HMGB1 (Sf6-derived recombinant HMGB1, final concentration: 2 μg/ml) was mixed with anti-HMGB1 antibody (#10-22 chimera, EV007156 or G4) or non-HMGB1-specific human monoclonal antibody (Control Ig) serving as a negative control antibody at a final concentration of 0, 0.02, 0.2, 2 or 20 μg/ml and incubated for 60 minutes. Subsequently, the reaction solutions were added to the immunoplates and reacted for 2 hours. Then, anti-HMGB1 antibody (Abnova, #H00003146-M08, 1 μg/ml) which had been biotinylated with a Biotin Labeling Kit (Dojindo, LK03) was reacted at room temperature for 1 hour. Finally, HRP-labeled streptavidin was reacted at room temperature for 1 hour. TMB (3,3′,5,5′-tetramethylbenzidine; SureBlue, KPL, #52-00-03) was added and HMGB1 bound to RAGE was detected by absorbance at 450 nm (FIG. 10). #10-22 chimera, EV007156 and G4 were all found to inhibit the binding of HMGB1 to RAGE in a manner dependent on the added antibody concentration.
In general terms: An ELISA detects its analyte on a solid surface through an enzyme-linked reagent.

In test [2] the target is T2, HMGB1 most C-terminal 8 residues synthetic peptide #10 EEEDDDDE
T2 construct: Synthetic peptide (SIGMA-ALDRICH, PEPScreen), dotted at 4 µg/spot on nitrocellulose
T2 peptide: EEEDDDDE
The experiment in a line: dot blotting, peptide at 4 µg/spot, antibody at 1 µg/ml. On the procedure:
(§1) To identify the positions of amino acids where the epitope of EV007156 against HMGB1 was located from among those constituting the C-terminal end of HMGB1, peptide mapping was conducted. Namely, 9 types of 12-residue long amino acids at 3 residue intervals and the most C-terminal 8 residues, i.e., 10 peptides in total (#1. […] (SEQ ID NO: 51), #2. […] (SEQ ID NO: 52), #3. […] (SEQ ID NO: 53), #4. EEDEEEEEDEED (SEQ ID NO: 54), #5. DEEEEEDEEDED (SEQ ID NO: 55), #6. […] (SEQ ID NO: 56), #7. EEDEEDEDEEED (SEQ ID NO: 57), #8. […] (SEQ ID NO: 58), #9. […] (SEQ ID NO: 59), #10. […] (SEQ ID NO: 60)) were designed to cover all the amino acids constituting the C-terminal region of HMGB1. The peptides thus synthesized (SIGMA-ALDRICH, PEPScreen) were each dissolved at 4 mg/ml in a 0.1 M ammonium acetate solution and added dropwise at 4 μg/spot onto a nitrocellulose membrane. After drying, the membrane was blocked with 5% skimmed milk-TBST for 90 minutes. EV007156 was then reacted for 1 hour at a concentration of 1 μg/ml. Subsequently, HRP-labeled anti-human IgG antibody (MBL, #208) was reacted for 1 hour, followed by detection using ECL prime (GE Healthcare, RPN2232) (FIG. 18). […], and more particularly the most C-terminal 8 residues (#10. […] (SEQ ID NO: 60)).

Test [3] addresses T3, HMGB1 C-terminal region synthetic peptide #9 EDEDEEEDDDDE
T3 construct: Synthetic peptide (SIGMA-ALDRICH, PEPScreen), dotted at 4 µg/spot on nitrocellulose
T3 peptide: EDEDEEEDDDDE
The test is described as above. The protocol: as §1

B1: #10-22 chimeric antibody (antibody, human IgG1, lambda)
heavy: not shown
light: YELIQPPSASVTLGNTVSITCSGDELPKRYAYWYQQKPDKSIVRVIYKDSERPSGISDRFSGSSSGTTATLTIRDTQAEDEADYYCHSTYSDDKLPVFGGGTKLTVLGQPKAAPSVTLFPPSSEELQANKATLVCLISDFYPGAVTVAWKADSSPVKAGVETTTPSKQSNNKYAASSYLSLTPEQWKSHRSYSCQVTHEGSTVEKTVAPTECS
notes: Rat #10-22 variable regions with human IgG1(lambda) constant regions; also called #10-22 chimera
As a reminder, the IC50 is the point on the concentration scale where inhibition reaches its midpoint. In the case of B1, the IC50 in test [1] was found to be 3.04 µg/mL.

B2: #10-22 humanized antibody EV007156 (antibody, human IgG1, lambda, V domains shown)
VH: EVQLVESGGGLVQPGGSLKLSCAASGFTFSNAAMYWVRQASGKGLEWVARIRTKPNNYATYYADSVKGRFTISRDDSKNTAYLQMNSLKTEDTAVYYCTAPRRTEGIVSSGVDYWGQGTLVTVSS
VL: YELTQPPSVSVSPGQTASITCSGDELPKRYAYWYQQKPGQSIVRVIYKDSERPSGIPERFSGSSSGTTATLTISGTQAEDEADYYCHSTYSDDKLPVFGGGTKLTVLG
notes: also called EV007156H + EV007156L
Regarding B2, the binding result in test [2] and in test [3] was “binds” each time.
